Source: patent publication US20240084003A1
Blank lines part the entries; values can stand above or below the substance they belong to.

Key:
[1] = target: human CD22 (full length, on cells) (human) (UniProt P20273); experiment: FACS on CHO-K1-human CD22 clone 1D9
[2] = target: human CD22 (full length, on cells) (human) (UniProt P20273); experiment: FACS on CHO-K1-human CD22 clone 1G5
[3] = target: human CD22 (full length, on cells) (human) (UniProt P20273); experiment: FACS on CHO-K1-human CD22 clone 2C4
[4] = target: human CD22 (full length, on cells) (human) (UniProt P20273); experiment: FACS on Raji cells, control of the HA22 row
[5] = target: human CD22 (full length, on cells) (human) (UniProt P20273); experiment: FACS on Raji cells, control of the m971 row
[6] = target: monkey CD22 on HEK293T-monkey CD22 cells (monkey); experiment: FACS, HEK293T-monkey CD22 cells
Sequence of monkey CD22 on HEK293T-monkey CD22 cells (monkey) (chain, as listed by the source limits assumed): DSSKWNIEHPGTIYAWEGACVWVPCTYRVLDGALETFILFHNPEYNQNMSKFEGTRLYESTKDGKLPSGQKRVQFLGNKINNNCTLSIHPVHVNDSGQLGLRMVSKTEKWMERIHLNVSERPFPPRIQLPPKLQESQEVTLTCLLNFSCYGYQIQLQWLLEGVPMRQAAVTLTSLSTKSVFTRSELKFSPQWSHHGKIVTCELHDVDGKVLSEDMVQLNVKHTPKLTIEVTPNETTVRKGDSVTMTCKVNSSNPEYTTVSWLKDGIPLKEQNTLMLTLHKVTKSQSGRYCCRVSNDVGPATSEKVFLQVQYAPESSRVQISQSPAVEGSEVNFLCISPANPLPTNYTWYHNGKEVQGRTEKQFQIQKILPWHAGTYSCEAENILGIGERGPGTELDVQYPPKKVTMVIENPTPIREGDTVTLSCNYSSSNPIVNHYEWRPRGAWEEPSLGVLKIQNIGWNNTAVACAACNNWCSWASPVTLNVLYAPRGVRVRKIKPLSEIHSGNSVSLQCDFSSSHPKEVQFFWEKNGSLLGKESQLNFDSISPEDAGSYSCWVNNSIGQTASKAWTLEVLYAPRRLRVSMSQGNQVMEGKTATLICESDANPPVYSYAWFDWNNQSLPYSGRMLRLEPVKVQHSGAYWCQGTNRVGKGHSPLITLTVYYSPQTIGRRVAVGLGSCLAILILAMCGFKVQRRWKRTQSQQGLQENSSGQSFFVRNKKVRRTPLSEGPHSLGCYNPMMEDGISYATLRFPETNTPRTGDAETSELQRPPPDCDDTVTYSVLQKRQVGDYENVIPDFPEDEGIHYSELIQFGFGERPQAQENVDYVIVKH

[7] = target: human CD22, endogenous on Raji cells (human) (UniProt P20273); experiment: FACS, Raji cells
Sequence of human CD22, endogenous on Raji cells (human) (P20273 20-847): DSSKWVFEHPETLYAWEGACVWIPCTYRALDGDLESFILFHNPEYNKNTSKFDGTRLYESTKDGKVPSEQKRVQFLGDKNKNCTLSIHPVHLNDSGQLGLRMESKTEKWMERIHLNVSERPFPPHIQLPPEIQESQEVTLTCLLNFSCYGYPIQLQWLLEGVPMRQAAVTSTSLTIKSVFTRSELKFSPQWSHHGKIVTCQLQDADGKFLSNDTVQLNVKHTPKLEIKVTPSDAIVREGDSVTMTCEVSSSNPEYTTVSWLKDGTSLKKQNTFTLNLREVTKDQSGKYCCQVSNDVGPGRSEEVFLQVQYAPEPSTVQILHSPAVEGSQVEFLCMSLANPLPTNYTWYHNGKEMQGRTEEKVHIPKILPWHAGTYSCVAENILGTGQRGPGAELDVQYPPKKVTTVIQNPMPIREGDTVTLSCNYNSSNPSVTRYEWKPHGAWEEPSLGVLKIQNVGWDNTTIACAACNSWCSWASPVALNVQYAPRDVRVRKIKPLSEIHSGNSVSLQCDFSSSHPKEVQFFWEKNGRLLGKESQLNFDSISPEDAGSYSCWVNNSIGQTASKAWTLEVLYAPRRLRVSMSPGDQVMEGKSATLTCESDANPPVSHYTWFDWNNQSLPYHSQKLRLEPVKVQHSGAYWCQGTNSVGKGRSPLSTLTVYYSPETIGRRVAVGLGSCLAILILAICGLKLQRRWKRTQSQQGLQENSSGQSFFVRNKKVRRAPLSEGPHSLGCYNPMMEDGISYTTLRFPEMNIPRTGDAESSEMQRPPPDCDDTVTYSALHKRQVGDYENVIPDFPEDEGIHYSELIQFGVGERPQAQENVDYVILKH

[8] = target: human CD22, full length, on CHO-K1-human CD22 2C4 cells (human) (UniProt P20273); experiment: FACS, CHO-K1-human CD22 2C4 cells
Sequence of human CD22, full length, on CHO-K1-human CD22 2C4 cells (human) (P20273 20-847 limits assumed): as the sequence (P20273 20-847) above

Sequence of human CD22 (full length, on cells) (human) (P20273 20-847 limits assumed): as the sequence (P20273 20-847) above

Cell mean fluorescence intensity [1]: 66 MFI
Cell mean fluorescence intensity [2]: 66 MFI
Cell mean fluorescence intensity [3]: 66 MFI
Cell mean fluorescence density [4]: 44 MFI
Cell mean fluorescence density [5]: 44 MFI
Substance: IgG subtype control (antibody)

Maximum mean fluorescence intensity [6]: 129 MFI
Substance: anti-hel-hIgG1 (antibody)

Maximum mean fluorescence intensity [7]: 564 MFI
Maximum mean fluorescence intensity [8]: 150 MFI
Substance: anti-hel-hIgG1 (negative control antibody against chicken egg lysozyme)
